Measurements: patent US11278600B2, “Human alpha-galactosidase variants” (Codexis, Inc., priority 2014, dated 2022)
Substitutions are numbered along the chain they refer to.

B1: 235 (protein)
chain: LDNGLARTPTMGWLHWERFMCNLDCQEEPDSCISEKLFMEMAELMVSEGWKDAGYEYLCIDDCWMAPQRDSEGRLQADPQRFPHGIRQLANYVHSKGLKLGIYADVGNKTCAGFPGSFGYYDIDAQTFADWGVDLLKFDGCYCDSLENLADGYKHMSLALNRTGRSIVYSCEWPLYMWPFQKPNYTEIRQYCNHWRNFADIDDSWASIKSILDWTSRNQERIVDVAGPGGWNDPDMLVIGNFGLSWDQQVTQMALWAIMAAPLFMSNDLRHISPQAKALLQDKDVIAINQDPLGKQGYQLRKGDNFEVWERPLSGDAWAVAMINRQEIGGPRSYTIPVASLGKGVACNPGCFITQLLPVKRKLGFYDWDSRLRSHINPTGTVLLQLENTMQMSLKDLL
modifications: Synthetic Polypeptide sequence of Variant No. 235 of mature Human GLA
B2: 236 (protein)
chain: B1 chain with D247N, D316L, P337A, G350A
modifications: Synthetic Polypeptide sequence of Variant No. 236 of mature Human GLA
B3: 300 (protein)
chain: LDNGLARTPTMGWLHWERFMCNLDCQEEPDSCISEKLFMEMAELMVSEGWKDAGYEYLCIDDCWMAPQRDSEGRLQADPQRFPHGIRQLANYVHSKGLKLGIYADVGNKTCAGFPGSFGYYDIDAQTFADWGVDLLKFDGCYCDSLENLADGYKHMSLALNRTGRSIVYSCEWPLYMWPFQKPNYTEIRQYCNHWRNFADIDDSWASVKSILDWTSFNQETIVDVAGPGGWNDPDMLVIGNFGLSWDQQVTQMALWAIMAAPLFMSNDLRHISPQAKALLQDKDVIAINQDPLGKQGYQLRQGDNFEVWERPLSGLAWAVAVINRQEIGGPRSYTIAVASLGGGVACNPACFITQLLPVKRKLGFYNWTSRLKSHINPTGTVLLQLENTMQMSLKDLL
modifications: Synthetic Polypeptide sequence of Variant No. 300 of mature Human GLA
B4: 302 (protein)
chain: B3 chain with V208I, T221R, D247N
modifications: Synthetic Polypeptide sequence of Variant No. 302 of mature Human GLA
B5: 303 (protein)
chain: B3 chain with V208I, T221R, V322I, A337E, G343D, F365L, I376V
modifications: Synthetic Polypeptide sequence of Variant No. 303 of mature Human GLA
B6: 307 (protein)
chain: B3 chain with V208I, T221K, D247N, Q302K, V322I, T369S, I376V
modifications: Synthetic Polypeptide sequence of Variant No. 307 of mature Human GLA
B7: 304 (protein)
chain: B1 chain with R217F, D247N, M322I, K362Q, D367N, D369T, R373K
modifications: Synthetic Polypeptide sequence of Variant No. 304 of mature Human GLA
B8: 308 (protein)
chain: B3 chain with K96I, V208I, F217R, T221R, D247N, V322I, G343K, T369S
modifications: Synthetic Polypeptide sequence of Variant No. 308 of mature Human GLA
B9: 306 (protein)
chain: B3 chain with V208I, T221K, Q302K, V322I, G343K
modifications: Synthetic Polypeptide sequence of Variant No. 306 of mature Human GLA
B10: 309 (protein)
chain: B1 chain with K96I, D316L, M322I, K343G, D367N, D369T, R373K
modifications: Synthetic Polypeptide sequence of Variant No. 309 of mature Human GLA
B11: 305 (protein)
chain: B1 chain with R217F, D247N, M322I, G350A, D367N, D369S, R373K
modifications: Synthetic Polypeptide sequence of Variant No. 305 of mature Human GLA
B12: 301 (protein)
chain: B3 chain with V208I, T221R, D247N, V322I, G343K
modifications: Synthetic Polypeptide sequence of Variant No. 301 of mature Human GLA

assay: HTP-analysis of yeast culture supernatants, no challenge (MUGal hydrolysis); format: biochemical; details: activity of the variant/activity of Rd2BB (SEQ ID NO: 10), yeast culture supernatant
How it was run: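 GLA variants were expressed in INVSc1 yeast grown in SD-Ura broth with glucose at 30° C., and culture supernatants were collected after 66-84 h. Supernatant was mixed with McIlvaine buffer pH 4.8 and MUGal (2 mM stock) in 50 mM citrate, 200 mM KCl, pH 4.6, incubated at 37° C. for 30-180 minutes, then quenched with sodium carbonate.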

Molecule | Relative Activity of GLA Variants After No Challenge (NC)
B1 | +++ (+++ = >2.5 relative activity over Rd2BB (SEQ ID NO: 10))
B2 | +++ (+++ = >2.5 relative activity over Rd2BB (SEQ ID NO: 10))

same assay, conditions: activity of the variant/activity of Rd3BB (SEQ ID NO: 13), yeast culture supernatant

Molecule | Relative Activity of GLA Variants After No Challenge (NC)
B3 | + (+ = 0.5 to 1.5 relative activity over Rd3BB (SEQ ID NO: 13))
B4 | + (+ = 0.5 to 1.5 relative activity over Rd3BB (SEQ ID NO: 13))
B5 | ++ (++ = >1.5 to 2.5 relative activity over Rd3BB (SEQ ID NO: 13))
B6 | + (+ = 0.5 to 1.5 relative activity over Rd3BB (SEQ ID NO: 13))
B7 | ++ (++ = >1.5 to 2.5 relative activity over Rd3BB (SEQ ID NO: 13))
B8 | − (− = <0.5 relative activity to Rd3BB (SEQ ID NO: 13))
B9 | + (+ = 0.5 to 1.5 relative activity over Rd3BB (SEQ ID NO: 13))
B10 | + (+ = 0.5 to 1.5 relative activity over Rd3BB (SEQ ID NO: 13))
B11 | + (+ = 0.5 to 1.5 relative activity over Rd3BB (SEQ ID NO: 13))
B12 | + (+ = 0.5 to 1.5 relative activity over Rd3BB (SEQ ID NO: 13))

assay: HTP-analysis of supernatants pretreated with acid (MUGal hydrolysis); format: biochemical; details: challenge at pH 4.0; activity of the variant/activity of Rd3BB (SEQ ID NO: 13); yeast culture supernatant
How it was run: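 Supernatants from INVSc1 yeast secreting GLA variants were challenged at 37° C. for 1-3 h in McIlvaine buffer at pH 3.3-4.3. Residual activity was then measured on 4 mM MUGal substrate stock at pH 4.8 with citrate buffer pH 4.3, over 30-180 min at 37° C. Reactions were quenched with sodium carbonate and read by fluorescence (Ex 355/Em 448 nm).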

Molecule | Relative Activity of GLA Variants After Challenge at pH 4.0
B3 | ++ (++ = >1.5 to 2.5 relative activity over Rd3BB (SEQ ID NO: 13))
B4 | + (+ = 0.5 to 1.5 relative activity over Rd3BB (SEQ ID NO: 13))
B5 | ++ (++ = >1.5 to 2.5 relative activity over Rd3BB (SEQ ID NO: 13))
B6 | + (+ = 0.5 to 1.5 relative activity over Rd3BB (SEQ ID NO: 13))
B7 | ++ (++ = >1.5 to 2.5 relative activity over Rd3BB (SEQ ID NO: 13))
B8 | − (− = <0.5 relative activity to Rd3BB (SEQ ID NO: 13))
B9 | ++ (++ = >1.5 to 2.5 relative activity over Rd3BB (SEQ ID NO: 13))
B10 | ++ (++ = >1.5 to 2.5 relative activity over Rd3BB (SEQ ID NO: 13))
B11 | + (+ = 0.5 to 1.5 relative activity over Rd3BB (SEQ ID NO: 13))
B12 | + (+ = 0.5 to 1.5 relative activity over Rd3BB (SEQ ID NO: 13))

same assay, conditions: challenge at pH 4.2; activity of the variant/activity of Rd2BB (SEQ ID NO: 10); yeast culture supernatant

Molecule | Relative Activity of GLA Variants After Challenge at pH 4.2
B1 | +++ (+++ = >2.5 relative activity over Rd2BB (SEQ ID NO: 10))
B2 | ++ (++ = 1.5 to 2.5 relative activity over Rd2BB (SEQ ID NO: 10))

assay: HTP-analysis of supernatants pretreated with base (MUGal hydrolysis); format: biochemical; details: challenge at pH 7.6; activity of the variant/activity of Rd2BB (SEQ ID NO: 10); yeast culture supernatant
How it was run: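 Supernatants from INVSc1 yeast expressing GLA variants (SD-Ura, 66-84 h, 30° C) were mixed with McIlvaine buffer pH 7.0-8.2 or 200 mM sodium bicarbonate pH 9.1-9.7 and held 1-18 h at 37° C. Residual activity was then measured on MUGal at pH 4.8/4.3, 37° C, 30-180 min, by fluorescence (Ex 355/Em 448 nm).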

Molecule | Relative Activity of GLA Variants After Challenge at pH 7.6
B1 | +++ (+++ = >2.5 relative activity over Rd2BB (SEQ ID NO: 10))
B2 | +++ (+++ = >2.5 relative activity over Rd2BB (SEQ ID NO: 10))

same assay, conditions: challenge at pH 8.2; activity of the variant/activity of Rd3BB (SEQ ID NO: 13); yeast culture supernatant

Molecule | Relative Activity of GLA Variants After Challenge at pH 8.2
B3 | ++ (++ = >1.5 to 2.5 relative activity over Rd3BB (SEQ ID NO: 13))
B4 | + (+ = 0.5 to 1.5 relative activity over Rd3BB (SEQ ID NO: 13))
B5 | ++ (++ = >1.5 to 2.5 relative activity over Rd3BB (SEQ ID NO: 13))
B6 | + (+ = 0.5 to 1.5 relative activity over Rd3BB (SEQ ID NO: 13))
B7 | ++ (++ = >1.5 to 2.5 relative activity over Rd3BB (SEQ ID NO: 13))
B8 | − (− = <0.5 relative activity to Rd3BB (SEQ ID NO: 13))
B9 | ++ (++ = >1.5 to 2.5 relative activity over Rd3BB (SEQ ID NO: 13))
B10 | +++ (+++ = >2.5 relative activity over Rd3BB (SEQ ID NO: 13))
B11 | + (+ = 0.5 to 1.5 relative activity over Rd3BB (SEQ ID NO: 13))
B12 | + (+ = 0.5 to 1.5 relative activity over Rd3BB (SEQ ID NO: 13))

assay: HTP-analysis of supernatants pretreated with bovine serum (MUGal hydrolysis); format: biochemical; details: activity of the variant/activity of Rd2BB (SEQ ID NO: 10), yeast culture supernatant
How it was run: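 Yeast INVSc1 culture supernatants containing secreted GLA variants were mixed with bovine serum (20:80) and held 1 h at 37° C. Serum-treated samples then reacted with MUGal (4 mM stock) in citrate/McIlvaine buffer (pH 4.3/4.8) for 180 min at 37° C., were quenched with sodium carbonate, and read by fluorescence (Ex 355, Em 448 nm).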

Molecule | Relative Activity of GLA Variants After Challenge with Serum
B1 | +++ (+++ = >2.5 relative activity over Rd2BB (SEQ ID NO: 10))
B2 | ++ (++ = 1.5 to 2.5 relative activity over Rd2BB (SEQ ID NO: 10))

same assay, conditions: activity of the variant/activity of Rd3BB (SEQ ID NO: 13), yeast culture supernatant

Molecule | Relative Activity of GLA Variants After Challenge with Serum
B3 | ++ (++ = >1.5 to 2.5 relative activity over Rd3BB (SEQ ID NO: 13))
B4 | + (+ = 0.5 to 1.5 relative activity over Rd3BB (SEQ ID NO: 13))
B5 | + (+ = 0.5 to 1.5 relative activity over Rd3BB (SEQ ID NO: 13))
B6 | + (+ = 0.5 to 1.5 relative activity over Rd3BB (SEQ ID NO: 13))
B7 | ++ (++ = >1.5 to 2.5 relative activity over Rd3BB (SEQ ID NO: 13))
B8 | + (+ = 0.5 to 1.5 relative activity over Rd3BB (SEQ ID NO: 13))
B9 | ++ (++ = >1.5 to 2.5 relative activity over Rd3BB (SEQ ID NO: 13))
B10 | ++ (++ = >1.5 to 2.5 relative activity over Rd3BB (SEQ ID NO: 13))
B11 | ++ (++ = >1.5 to 2.5 relative activity over Rd3BB (SEQ ID NO: 13))
B12 | − (− = <0.5 relative activity to Rd3BB (SEQ ID NO: 13))
